Reference: patent publication US20230095569A1

What was measured:
[1] = molecular target: mouse Claudine18.2 (mouse) (UniProt P56857); experiment: FACS on CHOK1-m18.2 cells
[2] = molecular target: Rhesus monkey Claudine18.2 (Rhesus monkey) (UniProt F6YQY3); experiment: FACS on CHOK1-rh18.2 cells
[3] = molecular target: human Claudin18.1 (CLDN18.1) (human) (UniProt P56856); experiment: FACS on CHOK1-18.1 cells
Sequence of human Claudin18.1 (CLDN18.1) (human) (P56856 whole entry): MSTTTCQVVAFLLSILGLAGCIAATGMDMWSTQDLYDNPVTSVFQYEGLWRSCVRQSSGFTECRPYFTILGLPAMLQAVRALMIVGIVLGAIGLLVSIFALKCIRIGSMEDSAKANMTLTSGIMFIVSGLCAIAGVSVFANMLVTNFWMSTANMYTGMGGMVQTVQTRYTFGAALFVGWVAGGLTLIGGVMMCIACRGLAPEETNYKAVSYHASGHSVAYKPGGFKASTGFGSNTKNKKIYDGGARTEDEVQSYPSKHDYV

| Binder | FACS MFI [1] | FACS MFI [2] | FACS MFI [3] |
| --- | --- | --- | --- |
| Ab18 (antibody, V domains shown) VH: QVQLKESGPGLVAPSQSLSITCTVSGFSLTTYGINWVRQPPGKGLEWLGVIWGDGSTNYHSALISRLSISKDNSKSQVFLKLNSLQTDDTATYYCVKSSYYGNAMDYWGQGTSVTVSS VL: DIVMTQSPSSLTVTAGETVTMSCKSSQSLLNSGNQKNYLTWYQQKPGQPPKLLIYWASTRESGVPDRFTGSGSGTDFTLTISSVQAEDLAVYYCQNVYSYPFTFGSGTKLEI | 13500 | 7890 |  |
| Ab21 (antibody, V domains shown) VH: EVMLVESGGGLVKPGGSLKLSCAASGFTFSSYTMSWVRQTPEKRLEWVATIIGGYGNTYYVDSVKGRFTISRDSAKNTLYLQMISLRSEDTALYYCTRLGQTQRNAMDYWGQGTSVTVSS VL: DILMTQSPSSLSVSAGEKVTMSCKSSQSLLNSGNQKNYLAWYQQKPGQPPKLLIYGASTRESGVPDRFTGSGSGTDFTLTISSVQAEDLAVYYCQNDYYYPFTFGAGTKLEL | 15200 | 8240 |  |
| Ab36 (antibody, V domains shown) VH: EVKLEESGGGLVQPGGSMKLSCVASGFTFSNYWMNWVRQSPEKGLEWVAQIRLKSDNYATHYAESVKGMFTISRDDSKSSVYLQMNNLRAEDTGIYYCTAGGDYWGQGTTLTVSS VL: DIVMTQSQKFMSTTVGDRVSITCKASQNVGTAVAWYHQKPGQSPKLLIYSASNRYTGVPDRFIGSGSGTDFTLTISNVQSEDLGNYFCQQYINYLLTFGSGTKLEIK | 21600 | 17400 | 4300 |
| Ab19 (antibody, V domains shown) VH: EVMLVESGGDLVKPGGSLKLSCAASGFSFSRYTMSWVRQTPEKRLEWVATVSVGSGNTYYLDSVKGRFTISRDNAKNTLFLQMSSLRSEDTALYYCARMGQTQRNAVDYWGQGTSVTVSS VL: DIVMTQSPSSLSVSAGEKVTMSCKSSQSLFNSGNQKNYLAWYQQKPGQPPKLLIYGASTRESGVPDRFTGSGSGTDFTLTISNVQAEDLAVYLCQNDHSFPLTFGAGTKLEL | 13400 | 6290 |  |
| Ab22 (antibody, V domains shown) VH: EVMLVESGGGLVKPGGSLKLSCAASGFTFSSYTMSWVRQTPEKRLEWVATIIGGYGNTYYADSVKGRFTISRDSAKNTLYLQMISLRSEDTALYYCTRLGQTQRNAMDYWGQGTSVTVSS VL: DILMTQSPSSLSVSAGEKVTMSCKSSQSLLNSGNQKNYLAWYQQKPGQPPKLLIYGASTRESGVPDTFTGSGSGTDFTLTISSVQAEDLAVYYCQNDYYYPFTFGAGTKLEL | 15500 | 7330 |  |
| Ab20 (antibody, V domains shown) VH: EVMLVESGGGLVKPGGSLKLSCVASGFTFSSYTMSWVRQTPEKRLEWVATIIGGYGNTYYSDSVKGRITISRDSAKNTLYLQMISLRSEDTALYYCTRLGQTQRNAMDYWGQGTSVTVSS VL: DILMTQSPSSLSVSAGEKVTMNCKSSQSLLNSGNQKNYLAWYQQKPGQPPKLLIYGASTRESGVPDRFTGSGSGTDFTLTISSVQAEDLAVYYCQNDYYYPFTFGAGTKLEL | 13800 | 7050 |  |
| Ab24 (antibody, V domains shown) VH: EVKLVESGGGLVKPGGSLKLSCAGSGFTFSSYTMSWVRQTPEKRLEWVATITIGVNIYYLDSVKGRFTISRDNAKNTLYLQMNSLRSEDTALYYCTRLGQTQRNAMDYWGQGTSVTVSS VL: DIVMTQSPTSLSVSAGEKVTMTCKSSQSLFNSGNQKNYLAWYQEKPGQPPKLLIYGASTRESGVPDRFTGSGSGTDFTLTISSVQAEDLAVYYCQNVHFYPFTFGAGTKLEL | 12800 | 7520 |  |
| Ab38 (antibody, V domains shown) VH: QIQLVQSGPELKKPGETVKISCKASGYTFTNYGMSWVKQAPGKGLKWMGWINTYSGVPTYADDFKGRFVFSLEASASTAYLQINNLKNEDAATYFCSRWSGPDPLEDHWGQGTTLTVSS VL: QIVLTQSPAIMSASPGEKVTMTCTASLSLNYIHWYRQRSGTSPKRWIYDTSKLASGVPSRFSGSGSGTSYSLTISSMEAEDAATYYCQQWSSNPWTFGGGTKLEIK | 20400 | 15600 | 4470 |
